{"source": "paper PMC4125095", "about": "“Arabidopsis miR171-Targeted Scarecrow-Like Proteins Bind to GT cis-Elements and Mediate Gibberellin-Regulated Chlorophyll Biosynthesis under Light Conditions”", "key": {"[1]": {"target": "T1, SCL27 (His-SCL27) (Arabidopsis thaliana) (UniProt Q7XJM8)", "T1 sequence": "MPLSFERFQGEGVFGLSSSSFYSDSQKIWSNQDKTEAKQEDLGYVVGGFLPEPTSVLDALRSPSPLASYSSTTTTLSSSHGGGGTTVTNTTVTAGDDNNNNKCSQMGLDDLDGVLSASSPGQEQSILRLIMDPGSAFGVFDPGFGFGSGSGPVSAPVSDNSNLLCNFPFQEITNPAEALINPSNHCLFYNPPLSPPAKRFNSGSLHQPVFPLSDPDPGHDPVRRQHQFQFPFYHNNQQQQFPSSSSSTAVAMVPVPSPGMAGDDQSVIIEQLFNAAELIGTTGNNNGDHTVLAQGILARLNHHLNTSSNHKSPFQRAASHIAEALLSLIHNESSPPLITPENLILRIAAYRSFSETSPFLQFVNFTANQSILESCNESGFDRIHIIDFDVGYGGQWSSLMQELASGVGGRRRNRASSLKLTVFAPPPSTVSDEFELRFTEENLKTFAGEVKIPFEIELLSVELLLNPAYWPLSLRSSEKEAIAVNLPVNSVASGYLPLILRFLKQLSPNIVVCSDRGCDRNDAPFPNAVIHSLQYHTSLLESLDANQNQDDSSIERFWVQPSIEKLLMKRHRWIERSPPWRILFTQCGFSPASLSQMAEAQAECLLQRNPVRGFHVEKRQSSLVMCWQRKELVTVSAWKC", "assay": "EMSA", "conditions": "1 nM Cy5-DNA, 20 uL binding buffer (composition not given, ref 60), 30 C 20 min; 6% native PAGE, 0.5x TBE, 4 C"}, "[2]": {"target": "T2, SCL27 (His-SCL27) (Arabidopsis thaliana, UniProt Q7XJM8 1-640)", "T2 sequence": "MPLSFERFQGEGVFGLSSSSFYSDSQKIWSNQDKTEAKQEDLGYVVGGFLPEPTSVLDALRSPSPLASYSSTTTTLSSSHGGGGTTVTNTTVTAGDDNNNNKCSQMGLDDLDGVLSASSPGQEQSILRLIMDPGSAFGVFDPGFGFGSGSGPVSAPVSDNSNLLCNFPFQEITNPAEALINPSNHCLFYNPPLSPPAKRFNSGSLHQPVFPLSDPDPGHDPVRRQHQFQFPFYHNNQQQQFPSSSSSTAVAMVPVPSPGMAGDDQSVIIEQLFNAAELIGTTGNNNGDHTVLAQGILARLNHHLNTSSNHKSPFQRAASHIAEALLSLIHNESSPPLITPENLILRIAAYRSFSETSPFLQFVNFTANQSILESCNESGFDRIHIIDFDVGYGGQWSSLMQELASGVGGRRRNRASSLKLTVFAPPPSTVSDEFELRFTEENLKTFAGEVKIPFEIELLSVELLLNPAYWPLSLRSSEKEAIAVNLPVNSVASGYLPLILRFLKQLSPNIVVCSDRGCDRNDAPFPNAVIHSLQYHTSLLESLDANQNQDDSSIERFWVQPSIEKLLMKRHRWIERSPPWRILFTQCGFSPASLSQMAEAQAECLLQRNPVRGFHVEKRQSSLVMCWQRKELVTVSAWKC", "assay": "EMSA; 1 nM probe; 1 nM Cy5-DNA, 20 uL binding buffer (composition not given, ref 60), 30 C 20 min; 6% native PAGE, 0.5x TBE, 4 C", "conditions": "protein: recombinant, tags: His (pET28b)"}}}
{"molecule": "AGCCAGTGGCGATAAGCCTGTTATAGGCATATGAACAAGACAATGGAGGAGGAGGAGGAGATGGTCTAGAAACCGTGACGACGGAGGAGGAAAAGAAAAGAGATGAAGTAGAAGAAGAAAATAAAATAAAATAGAGGCAAAAATGGAAATTTTCATTGGAATTTTGCAACTTTTAGAAATTGTAGAAGATGAAGAGAGCTGTGTGATCCAAAAGTGCTTATCGCCACTGGCT (double strand) [PORC promoter fragment III]", "values": [{"measurement": "binding", "setting": "[1]", "value": "binds"}]}
{"molecule": "AGCCAGTGGCGATAAGGATTAAAGAAACGGGTGGAATACACAAGAACAATGTATATGCAAGATTGCAGTGGTGTCGTTGATTACTCTCAATTTGATGATAAGATTCAAATTTGATATGAGTTTGGAGAAGAAGAAGATGACGAAGAGATCATTACTTGGCGATGAGACGAACAAGCAGGAAAGTATTGCCTACGCTTCCTGAACTTCATGAGATGCTTATCGCCACTGGCT (double strand) [PORC promoter fragment I]", "values": [{"measurement": "binding", "setting": "[1]", "value": "no binding"}]}
{"molecule": "W (62-bp GT element fragment) (dsDNA) DNA 1: GGAAAAGAAAAGAGATGAAGTAGAAGAAGAAAATAAAATAAAATAGAGGCAAAAATGGAAAT DNA 2: ATTTCCATTTTTGCCTCTATTTTATTTTATTTTCTTCTTCTACTTCATCTCTTTTCTTTTCC", "values": [{"measurement": "binding result", "setting": "[2]; three G(A/G)(A/T)AA(A/T) GT elements, mutant", "value": "binds"}]}
{"molecule": "M (62-bp mutated GT element fragment) (dsDNA) DNA 1: CCCGGGGAAAAGAGATGAAGTAGAAGAACCCGGGAAAATAAAATAGAGGCAAAAATCCCGGG DNA 2: CCCGGGATTTTTGCCTCTATTTTATTTTCCCGGGTTCTTCTACTTCATCTCTTTTCCCCGGG", "values": [{"measurement": "binding result", "setting": "[2]", "value": "no binding"}]}
